# Substitutions are numbered along the chain they refer to. Numbers in names are those of the source.
# T1: PUF4 RNA-binding domain (Saccharomyces cerevisiae, UniProt P25339 537-888)
# T1 sequence: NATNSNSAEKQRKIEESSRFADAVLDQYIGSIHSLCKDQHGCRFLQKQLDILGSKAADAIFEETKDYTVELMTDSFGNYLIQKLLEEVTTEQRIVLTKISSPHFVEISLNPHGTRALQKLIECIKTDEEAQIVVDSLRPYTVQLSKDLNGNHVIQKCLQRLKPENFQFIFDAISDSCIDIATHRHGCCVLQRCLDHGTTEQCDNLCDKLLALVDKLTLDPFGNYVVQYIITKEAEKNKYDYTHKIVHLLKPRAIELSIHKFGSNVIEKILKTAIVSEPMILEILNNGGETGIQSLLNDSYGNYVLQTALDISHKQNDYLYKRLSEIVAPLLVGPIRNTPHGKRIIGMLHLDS
# B1: Ia_S2_P4E.1_K4.1_C4.1_H4.1_A4.1_[T7A]_F4.1_T4.1 (ssRNA)
# RNA: UUUGAUUAAUAUGAUAUCGUUCUUUCUUGUAUAAUAUUCUUUCUCGAUAUCAUAUUAAUCUUU
# B2: Ib_S2_P5E.1_K5.1_C5.1_H5.1_[A4T]_A5.1_F5.1_[T8C]_T5.1 (ssRNA)
# RNA: UUUGAUUAAUAUGAUAUCGUUCUUUCUUGUUUUACUAUUCUUUCUCGAUAUCAUAUUAAUCUUU
# B3: Ia_S2_P5E.1_K5.1_C5.1_H5.1_A5.1_F5.1_[T8G]_T5.1 (ssRNA)
# RNA: B2 RNA with U31A, C35G
# B4: Ib_S2_P5E.1_K5.1_C5.1_H5.1_[A4C]_A5.1_F5.1_[A10T]_T5.1 (ssRNA)
# RNA: B2 RNA with U31C, C35U, A37U
# B5: Ib_S2_P5E.1_K5.1_C5.1_H5.1_[T3C]_A5.1_F5.1_[T9A]_T5.1 (ssRNA)
# RNA: B2 RNA with U30C, U31A, C35U, U36A
# B6: Ib_S2_P5E.1_K5.1_C5.1_H5.1_A5.1_[T6A]_F5.1_[T9A]_T5.1 (ssRNA)
# RNA: B2 RNA with U31A, U33A, C35U, U36A
# B7: Ib_S2_P5E.1_K5.1_C5.1_H5.1_A5.1_[T5C]_F5.1_[T9C]_T5.1 (ssRNA)
# RNA: B2 RNA with U31A, U32C, C35U, U36C
# B8: Ib_S2_P5E.1_K5.1_C5.1_H5.1_[G2A]_A5.1_F5.1_[T9C]_T5.1 (ssRNA)
# RNA: B2 RNA with G29A, U31A, C35U, U36C
# B9: Ia_S2_P5E.1_K5.1_C5.1_H5.1_A5.1_F5.1_[T8C]_T5.1 (ssRNA)
# RNA: B2 RNA with U31A
# B10: Ib_S2_P5E.1_K5.1_C5.1_H5.1_[G2A]_A5.1_F5.1_[A10C]_T5.1 (ssRNA)
# RNA: B2 RNA with G29A, U31A, C35U, A37C
# B11: Ib_S2_P5E.1_K5.1_C5.1_H5.1_[T3C]_A5.1_F5.1_[A10T]_T5.1 (ssRNA)
# RNA: B2 RNA with U30C, U31A, C35U, A37U
# B12: Ia_S2_P5E.1_K5.1_C5.1_H5.1_A5.1_F5.1_[T8A]_T5.1 (ssRNA)
# RNA: B2 RNA with U31A, C35A
# B13: Ib_S2_P5E.1_K5.1_C5.1_H5.1_A5.1_[T6C]_F5.1_[T8C]_T5.1 (ssRNA)
# RNA: B2 RNA with U31A, U33C
# B14: Ib_S2_P5E.1_K5.1_C5.1_H5.1_A5.1_[T6C]_F5.1_[A10C]_T5.1 (ssRNA)
# RNA: B2 RNA with U31A, U33C, C35U, A37C
# B15: Ib_S2_P5E.1_K5.1_C5.1_H5.1_A5.1_[T6A]_F5.1_[A10G]_T5.1 (ssRNA)
# RNA: B2 RNA with U31A, U33A, C35U, A37G
# B16: Ib_S2_P5E.1_K5.1_C5.1_H5.1_A5.1_[T5G]_F5.1_[T9A]_T5.1 (ssRNA)
# RNA: B2 RNA with U31A, U32G, C35U, U36A
# B17: Ib_S2_P5E.1_K5.1_C5.1_H5.1_A5.1_[T5A]_F5.1_[A10T]_T5.1 (ssRNA)
# RNA: B2 RNA with U31A, U32A, C35U, A37U
# B18: Ib_S2_P5E.1_K5.1_C5.1_H5.1_A5.1_[T5C]_F5.1_[T8C]_T5.1 (ssRNA)
# RNA: B2 RNA with U31A, U32C
# B19: Ib_S2_P5E.1_K5.1_C5.1_H5.1_A5.1_[T5G]_F5.1_[T8A]_T5.1 (ssRNA)
# RNA: B2 RNA with U31A, U32G, C35A
# B20: Ib_S2_P5E.1_K5.1_C5.1_H5.1_[A4T]_A5.1_F5.1_[T9C]_T5.1 (ssRNA)
# RNA: B2 RNA with C35U, U36C
# B21: Ic_S2_P5E.1_K5.1_C5.1_H5.1_A5.1_[A7G]_F5.1_[T8G]_T5.1 (ssRNA)
# RNA: B2 RNA with U31A, A34G, C35G
# B22: Ib_S2_P5E.1_K5.1_C5.1_H5.1_[G2C]_A5.1_F5.1_[A10T]_T5.1 (ssRNA)
# RNA: B2 RNA with G29C, U31A, C35U, A37U
# B23: Ib_S2_P5E.1_K5.1_C5.1_H5.1_[T1A]_A5.1_F5.1_[A10T]_T5.1 (ssRNA)
# RNA: B2 RNA with U28A, U31A, C35U, A37U
# B24: Ib_S2_P5E.1_K5.1_C5.1_H5.1_A5.1_[A7T]_F5.1_[T9A]_T5.1 (ssRNA)
# RNA: B2 RNA with U31A, A34U, C35U, U36A
# B25: Ib_S2_P5E.1_K5.1_C5.1_H5.1_A5.1_[A7T]_F5.1_[T8A]_T5.1 (ssRNA)
# RNA: B2 RNA with U31A, A34U, C35A
# B26: Ic_S2_P5E.1_K5.1_C5.1_H5.1_A5.1_[A7C]_F5.1_[T9A]_T5.1 (ssRNA)
# RNA: B2 RNA with U31A, A34C, C35U, U36A
# B27: Ib_S2_P5E.1_K5.1_C5.1_H5.1_[G2T]_A5.1_F5.1_[A10C]_T5.1 (ssRNA)
# RNA: B2 RNA with G29U, U31A, C35U, A37C
# B28: Ib_S2_P5E.1_K5.1_C5.1_H5.1_[A4C]_A5.1_F5.1_[A10C]_T5.1 (ssRNA)
# RNA: B2 RNA with U31C, C35U, A37C
# B29: Ib_S2_P5E.1_K5.1_C5.1_H5.1_A5.1_[T5G]_F5.1_[T8C]_T5.1 (ssRNA)
# RNA: B2 RNA with U31A, U32G
# Biological target: T1, PUF4 RNA-binding domain
# Experiment: Mg; RNA-MaP; 20 mM Na-HEPES pH 7.4, 30 mM KOAc, 0.75 mM MgCl2, 0.1% Tween-20, 5% glycerol, 0.1 mg/mL BSA, 2 mM DTT; 25 C; 0.0125-409.6 nM protein
# Details: tags: N-His6-TEV cleaved; C-SNAP kept, Cy3B-labelled; label: tethered on chip by stalled RNA polymerase
row,Binder,Kd
1,B1,0.749 nM
2,B2,25 nM
3,B3,26.8 nM
4,B4,180 nM
5,B5,608 nM
6,B6,1.12 nM
7,B7,16.9 nM
8,B8,429 nM
9,B9,2.99 nM
10,B10,294 nM
11,B11,2020 nM
12,B12,6.54 nM
13,B13,3.8 nM
14,B14,6.38 nM
15,B15,7.49 nM
16,B16,5.43 nM
17,B17,9.98 nM
18,B18,2.86 nM
19,B19,31.4 nM
20,B20,1480 nM
21,B21,62.8 nM
22,B22,1700 nM
23,B23,> 2300 nM
24,B24,2.01 nM
25,B25,3.83 nM
26,B26,2.31 nM
27,B27,> 2300 nM
28,B28,572 nM
29,B29,12.9 nM

# Source: paper PMC9352680, “A comprehensive thermodynamic model for RNA binding by the Saccharomyces cerevisiae Pumilio protein PUF4”
